Assay results reported in patent US20150344580A1 (MSM PROTEIN TECHNOLOGIES, published 2015).

B1: MSM-R710 (fully human anti-human CCR7 antibody, IgG1) (antibody, V domains shown)
VH: EVQLLESGGGLVQPGGSLRLSCAASGFTFSNYTMHWVRQAPGKGLEWVSGIGPRSGRTYYADSVKGRFTISRDNSKNTLYLQMNSLRAEDTAVYYCARSYAYQYRGFDYWGQGTLVTVSS
VL: EIVLTQSPGTLSLSPGERATLSCRASQSVSSSYLAWYQQKPGQAPRLLIYGASSRATGIPDRFSGSGSGTDFTLTISRLEPEDFAVYYCQSSVTFGQGTKVEIKR
notes: IgG1 format
B2: MSM-R735 (fully human anti-human CCR7 antibody, IgG1) (antibody)
heavy: not shown
light: EIVLTQSPGTLSLSPGERATLSCRASQSVSSSYLAWYQQKPGQAPRLLIYGASSRATGIPDRFSGSGSGTDFTLTISRLEPEDFAVYYCQQGSPVTFGQGTKVEIKRTVAAPSVFIFPPSDEQLKSGTASVVCLLNNFYPREAKVQWKVDNALQSGNSQESVTEQDSKDSTYSLSSTLTLSKADYEKHKVYACEVTHQGLSSPVTKSFNRGEC
notes: IgG1 format; also called R735 Human IgG1

Experiments:
human CXCR2 = molecular target: T1, human CXCR2 (human, UniProt P25025 1-360); assay: FACS, Cf2th-human CXCR2 cells
T1 construct: whole, on cells; Cf2th cells
T1 sequence (looked up): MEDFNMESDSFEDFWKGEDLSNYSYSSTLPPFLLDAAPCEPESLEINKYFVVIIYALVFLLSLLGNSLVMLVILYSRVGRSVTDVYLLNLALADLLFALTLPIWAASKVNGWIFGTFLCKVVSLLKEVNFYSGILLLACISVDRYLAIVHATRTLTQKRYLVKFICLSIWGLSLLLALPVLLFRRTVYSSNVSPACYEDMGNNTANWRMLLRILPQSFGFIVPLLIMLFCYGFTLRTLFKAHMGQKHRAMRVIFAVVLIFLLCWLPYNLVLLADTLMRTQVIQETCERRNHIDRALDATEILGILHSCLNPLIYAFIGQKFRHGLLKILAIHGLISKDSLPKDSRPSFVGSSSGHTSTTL
Protocol: (§1) In more details, the cell staining procedure was: […] cell suspension in 10 μl FACS buffer (1×PBS, 2.0% FBS, 0.2% sodium azide) was mixed with 10 μl of 200 nM the corresponding anti-CCR7 MAB and incubated on ice for 30 min. Washing step—after the incubation 150 μl of FACS buffer was added to the cell sample, the samples were mixed gently by up-down pipetting the cell suspension. Then the samples were centrifuged at 1100 rpm for 5 minutes, and supernatants were removed. Washing step was repeated ones. Then 10 μl of anti-human PE-(Fab)2 form Jackson Immuno Research Lab. #709-116-098 diluted 40 times in FACS buffer were added to the cells and the cells were re-suspended by up-down pipetting. After 20 min. incubation on ice in dark the washing step was repeated twice. The washed cells were mixed with 100 μl of FIX buffer (0.5% Paraformaldehyde solution in PBS). Fixed samples were stored in dark on ice and analyzed by FACS on Guava PCA-96 flow cytometer. The fluorescent signals collected from individual cells were obtained using fluorescence Activated Cell Sorter (FACS).

cyno CXCR3 = molecular target: T2, cyno CXCR3 (cynomolgus monkey, UniProt A0A2K5UV19 1-368); assay: FACS, CHO-cyno CXCR3 cells
T2 construct: whole, on cells; CHO cells
T2 sequence: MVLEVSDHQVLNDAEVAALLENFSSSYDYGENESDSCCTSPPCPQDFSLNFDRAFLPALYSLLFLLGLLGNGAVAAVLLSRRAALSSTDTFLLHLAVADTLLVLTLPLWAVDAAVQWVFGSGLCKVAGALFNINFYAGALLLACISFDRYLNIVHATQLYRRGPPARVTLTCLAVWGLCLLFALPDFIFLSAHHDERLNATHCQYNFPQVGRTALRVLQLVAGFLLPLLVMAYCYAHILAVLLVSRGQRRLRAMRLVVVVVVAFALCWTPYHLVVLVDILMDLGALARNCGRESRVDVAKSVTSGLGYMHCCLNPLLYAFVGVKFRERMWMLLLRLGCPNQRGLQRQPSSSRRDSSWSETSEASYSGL
Protocol: as §1

human CCR10 = molecular target: T3, human CCR10 (human, UniProt P46092 1-362); assay: FACS, CHO-human CCR10 cells
T3 construct: whole, on cells; CHO cells
T3 sequence (looked up): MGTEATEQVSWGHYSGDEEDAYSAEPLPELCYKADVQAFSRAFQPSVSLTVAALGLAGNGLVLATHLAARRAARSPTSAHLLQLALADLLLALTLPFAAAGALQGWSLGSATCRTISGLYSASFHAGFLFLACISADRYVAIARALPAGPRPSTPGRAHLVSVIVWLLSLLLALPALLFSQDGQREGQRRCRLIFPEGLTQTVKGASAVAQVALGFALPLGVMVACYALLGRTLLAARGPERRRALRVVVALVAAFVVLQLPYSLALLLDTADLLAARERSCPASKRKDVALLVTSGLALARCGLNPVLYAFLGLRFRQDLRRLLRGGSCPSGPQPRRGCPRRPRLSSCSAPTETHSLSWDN

human CXCR7 = molecular target: T4, human CXCR7 (human, UniProt P25106 1-362); assay: FACS, CHO-human CXCR7 cells
T4 construct: whole, on cells; CHO cells

human CCR9 = molecular target: T5, human CCR9 (human, UniProt P51686 1-369); assay: FACS, R1610-human CCR9 cells
T5 construct: whole, on cells; R1610 cells
T5 sequence (looked up): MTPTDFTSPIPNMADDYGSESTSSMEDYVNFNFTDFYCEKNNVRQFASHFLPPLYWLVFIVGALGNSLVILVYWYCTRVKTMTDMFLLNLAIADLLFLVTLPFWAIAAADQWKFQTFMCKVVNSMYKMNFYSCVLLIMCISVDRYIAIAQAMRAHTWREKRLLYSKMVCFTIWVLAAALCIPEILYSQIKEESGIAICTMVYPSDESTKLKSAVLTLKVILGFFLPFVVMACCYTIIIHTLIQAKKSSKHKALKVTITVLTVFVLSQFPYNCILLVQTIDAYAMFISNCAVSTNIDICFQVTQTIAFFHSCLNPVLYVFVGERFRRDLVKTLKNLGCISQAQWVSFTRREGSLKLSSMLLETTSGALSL
Protocol: as §1

human CXCR1 = molecular target: T6, human CXCR1 (human, UniProt P25024 1-350); assay: FACS, R1610-human CXCR1 cells
T6 construct: whole, on cells; R1610 cells
T6 sequence (looked up): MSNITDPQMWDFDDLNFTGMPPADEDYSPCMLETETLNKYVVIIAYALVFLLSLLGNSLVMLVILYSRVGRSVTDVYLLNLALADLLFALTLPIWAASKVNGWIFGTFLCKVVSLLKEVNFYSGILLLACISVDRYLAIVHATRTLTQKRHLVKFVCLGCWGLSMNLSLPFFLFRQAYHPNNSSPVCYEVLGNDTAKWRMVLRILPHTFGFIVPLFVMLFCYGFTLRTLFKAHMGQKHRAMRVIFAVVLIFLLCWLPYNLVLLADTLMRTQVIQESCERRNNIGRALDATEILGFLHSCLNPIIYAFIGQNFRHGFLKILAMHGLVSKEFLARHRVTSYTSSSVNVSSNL
Protocol: as §1

human CCR3 = molecular target: T7, human CCR3 (human, UniProt P51677 1-355); assay: FACS, CHO-human CCR3 cells
T7 construct: whole, on cells; CHO cells
T7 sequence (looked up): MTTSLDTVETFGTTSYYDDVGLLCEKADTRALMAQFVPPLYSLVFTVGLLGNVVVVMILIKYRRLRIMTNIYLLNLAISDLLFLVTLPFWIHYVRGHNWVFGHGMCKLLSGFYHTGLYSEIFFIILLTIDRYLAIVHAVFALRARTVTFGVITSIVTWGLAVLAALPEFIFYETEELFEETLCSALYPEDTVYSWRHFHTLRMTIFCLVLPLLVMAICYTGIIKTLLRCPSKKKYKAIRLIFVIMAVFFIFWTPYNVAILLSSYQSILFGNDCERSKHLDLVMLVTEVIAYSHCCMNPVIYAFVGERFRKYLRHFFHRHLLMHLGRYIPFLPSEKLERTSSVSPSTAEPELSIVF
Protocol: as §1

human CCR5 = molecular target: T8, human CCR5 (human, UniProt P51681 1-352); assay: FACS, CHO-human CCR5 cells
T8 construct: whole, on cells; CHO cells
Protocol: as §1

T8 sequence (P51681 whole entry): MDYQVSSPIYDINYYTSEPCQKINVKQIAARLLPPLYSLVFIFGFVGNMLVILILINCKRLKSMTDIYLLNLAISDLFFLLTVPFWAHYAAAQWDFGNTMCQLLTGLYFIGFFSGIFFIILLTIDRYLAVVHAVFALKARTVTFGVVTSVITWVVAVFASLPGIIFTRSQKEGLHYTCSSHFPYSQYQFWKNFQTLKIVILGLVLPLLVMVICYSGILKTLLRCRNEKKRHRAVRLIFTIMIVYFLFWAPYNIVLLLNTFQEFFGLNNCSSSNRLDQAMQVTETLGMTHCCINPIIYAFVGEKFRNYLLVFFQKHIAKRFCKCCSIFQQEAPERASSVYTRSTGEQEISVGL
T4 sequence (P25106 whole entry): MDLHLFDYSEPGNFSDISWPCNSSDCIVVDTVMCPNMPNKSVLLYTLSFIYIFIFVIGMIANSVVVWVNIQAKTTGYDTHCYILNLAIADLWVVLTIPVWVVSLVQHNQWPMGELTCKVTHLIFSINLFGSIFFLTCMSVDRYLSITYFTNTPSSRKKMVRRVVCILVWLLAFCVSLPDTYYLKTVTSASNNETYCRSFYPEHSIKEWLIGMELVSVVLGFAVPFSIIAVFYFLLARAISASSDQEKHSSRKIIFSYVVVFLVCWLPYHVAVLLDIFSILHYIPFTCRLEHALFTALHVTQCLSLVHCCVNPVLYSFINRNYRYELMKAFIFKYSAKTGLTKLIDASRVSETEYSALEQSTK

Binder	binding result (human CXCR2)	binding result (cyno CXCR3)	binding result (human CCR10)	binding result (human CXCR7)	binding result (human CCR9)	binding result (human CXCR1)	binding result (human CCR3)	binding result (human CCR5)
B1	no binding (tested: 200 nM MAB mixed 1:1 with cells)	no binding (tested: 200 nM MAB mixed 1:1 with cells)	no binding (tested: 200 nM MAB mixed 1:1 with cells)	no binding (tested: 200 nM MAB mixed 1:1 with cells)	no binding (tested: 200 nM MAB mixed 1:1 with cells)	no binding (tested: 200 nM MAB mixed 1:1 with cells)	no binding (tested: 200 nM MAB mixed 1:1 with cells)	no binding (tested: 200 nM MAB mixed 1:1 with cells)
B2	no binding (tested: 200 nM MAB mixed 1:1 with cells)	no binding (tested: 200 nM MAB mixed 1:1 with cells)	no binding (tested: 200 nM MAB mixed 1:1 with cells)	no binding (tested: 200 nM MAB mixed 1:1 with cells)	no binding (tested: 200 nM MAB mixed 1:1 with cells)	no binding (tested: 200 nM MAB mixed 1:1 with cells)	no binding (tested: 200 nM MAB mixed 1:1 with cells)	no binding (tested: 200 nM MAB mixed 1:1 with cells)
